According to patent US20240002497A1:

Key:
[1] = biological target: huNav1.5-β1-β2-β3 (human) (UniProt Q14524); test: binding FACS, HEK Flp-In
[2] = biological target: huNav1.5-β1-β2-β3 (human) (UniProt Q14524); test: FACS, CHO Flp-In, competitor 1 µM IRR00092
[3] = biological target: huNav1.5-β1-β2-β3 (human) (UniProt Q14524); test: FACS, CHO Flp-In, competitor 1 µM F010300703
[4] = biological target: huNav1.5-β1-β2-β3 (human) (UniProt Q14524); test: binding FACS, CHO Flp-In, periplasmic extract
[5] = biological target: rhNav1.7α + β1-β2-β3 (rhesus Nav1.7α co-expressed with Navβ1, Navβ2 and Navβ3) (rhesus monkey); test: FACS, periplasmic extract, CHO Flp-In cells; SD MFI 18
[6] = biological target: rhNav1.7α + β1-β2-β3 (rhesus Nav1.7α co-expressed with Navβ1, Navβ2 and Navβ3) (rhesus monkey); test: FACS, periplasmic extract, CHO Flp-In cells; SD MFI 8
[7] = biological target: muNav1.7α (murine Nav1.7α) (murine) (UniProt Q62205); test: FACS, periplasmic extract, HEK Jmp-In cells; SD MFI 21
[8] = biological target: rhNav1.7α + β1-β2-β3 (rhesus Nav1.7α co-expressed with Navβ1, Navβ2 and Navβ3) (rhesus monkey); test: FACS, periplasmic extract, CHO Flp-In cells; SD MFI 6
[9] = biological target: muNav1.7α (murine Nav1.7α) (murine) (UniProt Q62205); test: FACS, periplasmic extract, HEK Jmp-In cells; SD MFI 25
[10] = biological target: muNav1.7α (murine Nav1.7α) (murine) (UniProt Q62205); test: FACS, periplasmic extract, HEK Jmp-In cells; SD MFI 1
[11] = biological target: huNav1.7α + β1-β2-β3 (human Nav1.7α co-expressed with Navβ1, Navβ2 and Navβ3) (human) (UniProt Q15858); test: FACS, periplasmic extract, CHO Flp-In cells; SD MFI 16
[12] = biological target: rhNav1.7α + β1-β2-β3 (rhesus Nav1.7α co-expressed with Navβ1, Navβ2 and Navβ3) (rhesus monkey); test: FACS, periplasmic extract, CHO Flp-In cells; SD MFI 20
[13] = biological target: muNav1.7α (murine Nav1.7α) (murine) (UniProt Q62205); test: FACS, periplasmic extract, HEK Jmp-In cells; SD MFI 12
[14] = biological target: muNav1.7α (murine Nav1.7α) (murine) (UniProt Q62205); test: FACS, periplasmic extract, HEK Jmp-In cells; SD MFI 0
[15] = biological target: rhNav1.7α + β1-β2-β3 (rhesus Nav1.7α co-expressed with Navβ1, Navβ2 and Navβ3) (rhesus monkey); test: FACS, periplasmic extract, CHO Flp-In cells; SD MFI 30
[16] = biological target: rhNav1.7α + β1-β2-β3 (rhesus Nav1.7α co-expressed with Navβ1, Navβ2 and Navβ3) (rhesus monkey); test: FACS, periplasmic extract, CHO Flp-In cells; SD MFI 10
[17] = biological target: muNav1.7α (murine Nav1.7α) (murine) (UniProt Q62205); test: FACS, periplasmic extract, HEK Jmp-In cells; SD MFI 19
[18] = biological target: muNav1.7α (murine Nav1.7α) (murine) (UniProt Q62205); test: FACS, periplasmic extract, HEK Jmp-In cells; SD MFI 123
[19] = biological target: muNav1.7α (murine Nav1.7α) (murine) (UniProt Q62205); test: FACS, periplasmic extract, HEK Jmp-In cells; SD MFI 16
[20] = biological target: rhNav1.7α + β1-β2-β3 (rhesus Nav1.7α co-expressed with Navβ1, Navβ2 and Navβ3) (rhesus monkey); test: FACS, periplasmic extract, CHO Flp-In cells; SD MFI 1
[21] = biological target: muNav1.7α (murine Nav1.7α) (murine) (UniProt Q62205); test: FACS, periplasmic extract, HEK Jmp-In cells; SD MFI 7
[22] = biological target: rhNav1.7α + β1-β2-β3 (rhesus Nav1.7α co-expressed with Navβ1, Navβ2 and Navβ3) (rhesus monkey); test: FACS, periplasmic extract, CHO Flp-In cells; SD MFI 0
[23] = biological target: muNav1.7α (murine Nav1.7α) (murine) (UniProt Q62205); test: FACS, periplasmic extract, HEK Jmp-In cells; SD MFI 15
[24] = biological target: muNav1.7α (murine Nav1.7α) (murine) (UniProt Q62205); test: FACS, periplasmic extract, HEK Jmp-In cells; SD MFI 8
[25] = biological target: rhNav1.7α + β1-β2-β3 (rhesus Nav1.7α co-expressed with Navβ1, Navβ2 and Navβ3) (rhesus monkey); test: FACS, periplasmic extract, CHO Flp-In cells; SD MFI 13

B1: F0103PMP492E09 (bispecific antibody)
chain: EVQLVESGGGLVQPGGSLRLSCAASGSIFNINSMAWYRRAPGKQRELVASSTNGGSTNYADSVKGRFTISRDNAKRVYLQMNSLTPEDTAVYYCRALLQPSIYDISRTYWGQGTLVTVSSGGGGSGGGGSGGGGSGGGGSGGGGSGGGGSGGGGSGGGGSGGGGSGGGGSEVQLVESGGGLVQAGGSLRLSCAASKSILSFAYMRWYRQAPGKQREFVASIAIGGATSYTDSVKGRFTISRDNAKNTVYLQMNSLKPEDTAVYYCSAPAGQYRGQGTLVTVSSAAADYKDHDGDYKDHDIDYKDDDDKGAAHHHHHHKAAGGGGG
Binder B1 has an MFI [1] of 1660 MFI, an MFI [2] of 1860 MFI and an MFI [3] of 825 MFI. It also gave an MFI [4] of 559 MFI.

B2: F0103PMP478E09 (bispecific antibody)
chain: EVQLVESGGGLVQPGGSLRLSCAASGSIFNINSMAWYRRAPGKQRELVASSTNGGSTNYADSVKGRFTISRDNAKRVYLQMNSLTPEDTAVYYCRALLQPSIYDISRTYWGQGTLVTVSSGGGGSGGGGSGGGGSGGGGSGGGGSGGGGSGGGGSGGGGSGGGGSGGGGSEVQLVESGGGLVQAGGSLRLSCAASGRAFSTLAMGWFRQAPGKEREFVAAISRNGNNSATGDSLKGRFTISRDSTKSTVFLQMNTLKPEDTAVYYCAAISTPSASHPYVRKESYRYWGQGTQVTVSSAAADYKDHDGDYKDHDIDYKDDDDKGAAHHHHHHKAAGGGGG
With B2 the MFI [1] was 877 MFI, the MFI [2] was 2060 MFI and the MFI [3] was 833 MFI. It also gave an MFI [4] of 1080 MFI.

B3: F0103464B09 N99A library variant (VHH, name in Kabat numbering)
VHH: EVQLVESGGGLVQPGGSLRLSCATTSRAFIRDVFTGWYRRVPGKERELVARIYNGGNTNYADFAKGRFSISRDNAKKMVTLRMSNLKPEDTGVYYCLFSGTIATGREYRSGDYWGQGTLVTVSS
Work on B3 yielded a Mean MFI [5] of 611 MFI.

B4: F0103464B09 N99G library variant (VHH, name in Kabat numbering)
VHH: EVQLVESGGGLVQPGGSLRLSCATTSRAFIRDVFTGWYRRVPGKERELVARIYNGGNTNYADFAKGRFSISRDNAKKMVTLRMSNLKPEDTGVYYCLFSGTIGTGREYRSGDYWGQGTLVTVSS
Binder B4 has a Mean MFI [6] of 530 MFI and a Mean MFI [7] of 956 MFI.

B5: F0103464B09 N99C library variant (VHH, name in Kabat numbering)
VHH: EVQLVESGGGLVQPGGSLRLSCATTSRAFIRDVFTGWYRRVPGKERELVARIYNGGNTNYADFAKGRFSISRDNAKKMVTLRMSNLKPEDTGVYYCLFSGTICTGREYRSGDYWGQGTLVTVSS
Work on B5 yielded a Mean MFI [8] of 528 MFI and a Mean MFI [9] of 930 MFI.

B6: F0103464B09 N99E library variant (VHH, name in Kabat numbering)
VHH: EVQLVESGGGLVQPGGSLRLSCATTSRAFIRDVFTGWYRRVPGKERELVARIYNGGNTNYADFAKGRFSISRDNAKKMVTLRMSNLKPEDTGVYYCLFSGTIETGREYRSGDYWGQGTLVTVSS
With B6 the Mean MFI [8] was 528 MFI and the Mean MFI [10] was 938 MFI.

B7: F0103464B09 N99P library variant (VHH, name in Kabat numbering)
VHH: EVQLVESGGGLVQPGGSLRLSCATTSRAFIRDVFTGWYRRVPGKERELVARIYNGGNTNYADFAKGRFSISRDNAKKMVTLRMSNLKPEDTGVYYCLFSGTIPTGREYRSGDYWGQGTLVTVSS
B7 gave a Mean MFI [11] of 612 MFI, a Mean MFI [12] of 554 MFI and a Mean MFI [13] of 912 MFI.

B8: F0103464B09 N99D library variant (VHH, name in Kabat numbering)
VHH: EVQLVESGGGLVQPGGSLRLSCATTSRAFIRDVFTGWYRRVPGKERELVARIYNGGNTNYADFAKGRFSISRDNAKKMVTLRMSNLKPEDTGVYYCLFSGTIDTGREYRSGDYWGQGTLVTVSS
With B8 the Mean MFI [14] was 929 MFI and the Mean MFI [15] was 520 MFI.

B9: F0103464B09 N99L library variant (VHH, name in Kabat numbering)
VHH: EVQLVESGGGLVQPGGSLRLSCATTSRAFIRDVFTGWYRRVPGKERELVARIYNGGNTNYADFAKGRFSISRDNAKKMVTLRMSNLKPEDTGVYYCLFSGTILTGREYRSGDYWGQGTLVTVSS
With B9 the Mean MFI [16] was 536 MFI and the Mean MFI [17] was 919 MFI.

B10: F0103464B09 N99Q library variant (VHH, name in Kabat numbering)
VHH: EVQLVESGGGLVQPGGSLRLSCATTSRAFIRDVFTGWYRRVPGKERELVARIYNGGNTNYADFAKGRFSISRDNAKKMVTLRMSNLKPEDTGVYYCLFSGTIQTGREYRSGDYWGQGTLVTVSS
Work on B10 yielded a Mean MFI [16] of 546 MFI and a Mean MFI [18] of 1490 MFI.

B11: F0103464B09 T100F library variant (VHH, name in Kabat numbering)
VHH: EVQLVESGGGLVQPGGSLRLSCATTSRAFIRDVFTGWYRRVPGKERELVARIYNGGNTNYADFAKGRFSISRDNAKKMVTLRMSNLKPEDTGVYYCLFSGTINFGREYRSGDYWGQGTLVTVSS
For B11, the Mean MFI [15] was 533 MFI and the Mean MFI [17] was 997 MFI.

B12: F0103464B09 N99V library variant (VHH, name in Kabat numbering)
VHH: EVQLVESGGGLVQPGGSLRLSCATTSRAFIRDVFTGWYRRVPGKERELVARIYNGGNTNYADFAKGRFSISRDNAKKMVTLRMSNLKPEDTGVYYCLFSGTIVTGREYRSGDYWGQGTLVTVSS
B12 gave a Mean MFI [8] of 552 MFI and a Mean MFI [19] of 952 MFI.

B13: F0103464B09 T100D library variant (VHH, name in Kabat numbering)
VHH: EVQLVESGGGLVQPGGSLRLSCATTSRAFIRDVFTGWYRRVPGKERELVARIYNGGNTNYADFAKGRFSISRDNAKKMVTLRMSNLKPEDTGVYYCLFSGTINDGREYRSGDYWGQGTLVTVSS
B13 was tested, and the Mean MFI [20] was 526 MFI.

B14: F0103464B09 N99I library variant (VHH, name in Kabat numbering)
VHH: EVQLVESGGGLVQPGGSLRLSCATTSRAFIRDVFTGWYRRVPGKERELVARIYNGGNTNYADFAKGRFSISRDNAKKMVTLRMSNLKPEDTGVYYCLFSGTIITGREYRSGDYWGQGTLVTVSS
For B14, the Mean MFI [8] was 540 MFI and the Mean MFI [21] was 946 MFI.

B15: F0103464B09 N99F library variant (VHH, name in Kabat numbering)
VHH: EVQLVESGGGLVQPGGSLRLSCATTSRAFIRDVFTGWYRRVPGKERELVARIYNGGNTNYADFAKGRFSISRDNAKKMVTLRMSNLKPEDTGVYYCLFSGTIFTGREYRSGDYWGQGTLVTVSS
For B15, the Mean MFI [8] was 516 MFI and the Mean MFI [10] was 938 MFI.

B16: F0103464B09 N99M library variant (VHH, name in Kabat numbering)
VHH: EVQLVESGGGLVQPGGSLRLSCATTSRAFIRDVFTGWYRRVPGKERELVARIYNGGNTNYADFAKGRFSISRDNAKKMVTLRMSNLKPEDTGVYYCLFSGTIMTGREYRSGDYWGQGTLVTVSS
B16 was tested, and the Mean MFI [22] was 523 MFI and the Mean MFI [23] was 936 MFI.

B17: F0103464B09 N99K library variant (VHH, name in Kabat numbering)
VHH: EVQLVESGGGLVQPGGSLRLSCATTSRAFIRDVFTGWYRRVPGKERELVARIYNGGNTNYADFAKGRFSISRDNAKKMVTLRMSNLKPEDTGVYYCLFSGTIKTGREYRSGDYWGQGTLVTVSS
In the case of B17, the Mean MFI [20] is reported as 537 MFI and the Mean MFI [24] is reported as 923 MFI.

B18: F0103464B09 T100V library variant (VHH, name in Kabat numbering)
VHH: EVQLVESGGGLVQPGGSLRLSCATTSRAFIRDVFTGWYRRVPGKERELVARIYNGGNTNYADFAKGRFSISRDNAKKMVTLRMSNLKPEDTGVYYCLFSGTINVGREYRSGDYWGQGTLVTVSS
B18 gave a Mean MFI [25] of 564 MFI and a Mean MFI [19] of 1680 MFI.
